This note sets out measurements from paper PMC7652997, “Regulation of γ-Aminobutyrate (GABA) Utilization in Corynebacterium glutamicum by the PucR-Type Transcriptional Regulator GabR and by Alternative Nitrogen and Carbon Sources”.

Series [1] has as its target GabR (Cg0565), PucR-type transcriptional regulator of Corynebacterium glutamicum (Corynebacterium glutamicum ATCC 13032). The series is described as follows: SEC; Tag-free GabR on Superdex 200 Increase 10/300 GL, 100 mM phosphate buffer pH 7.0 with 1 mM DTT, 0.75 mL/min; native size from a calibration curve (Kav versus log Mr) of standard proteins; apparent mass 420 kDa against a theoretical monomer mass of 55.75 kDa.

For series [2], the target named is T1, GabR (Corynebacterium glutamicum WT, UniProt Q8NT36 1-504).
T1 sequence: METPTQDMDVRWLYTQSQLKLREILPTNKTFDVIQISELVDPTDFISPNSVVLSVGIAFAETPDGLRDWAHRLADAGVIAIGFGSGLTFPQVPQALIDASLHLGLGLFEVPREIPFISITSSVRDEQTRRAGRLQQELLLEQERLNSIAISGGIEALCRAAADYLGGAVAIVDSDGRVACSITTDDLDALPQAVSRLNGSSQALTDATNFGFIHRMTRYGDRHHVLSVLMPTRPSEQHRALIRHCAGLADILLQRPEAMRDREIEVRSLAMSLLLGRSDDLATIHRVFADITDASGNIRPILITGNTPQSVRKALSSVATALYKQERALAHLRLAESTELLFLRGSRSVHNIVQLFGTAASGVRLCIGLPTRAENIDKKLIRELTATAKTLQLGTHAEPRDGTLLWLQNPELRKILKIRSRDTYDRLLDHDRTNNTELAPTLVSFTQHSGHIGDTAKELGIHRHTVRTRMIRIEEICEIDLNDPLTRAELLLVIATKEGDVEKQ
The series is described as follows: EMSA; complex band absent from negative control; 10 mM Tris-HCl pH 7.5, 50 mM NaCl, 5% glycerol, 0.005% Triton X-100, 20 min at room temperature; 100 ng DNA, 0-2.6 uM GabR monomer; native PAGE in TB buffer pH. The settings on record: protein: recombinant; tags: N-terminal His10 removed with TEV protease; chain copies: 8; blunt. Background: A gel shift assay detects complexes by their altered migration in electrophoresis.

Series [3] concerns the target T1, GabR. The series is described as follows: EMSA; reasonable binding; 10 mM Tris-HCl pH 7.5, 50 mM NaCl, 5% glycerol, 0.005% Triton X-100, 20 min at room temperature; 100 ng DNA, 0-2.6 uM GabR monomer; native PAGE in TB buffer pH. The settings on record: protein: recombinant; tags: N-terminal His10 removed with TEV protease; chain copies: 8; blunt.

As to “GabR (Cg0565), PucR-type transcriptional regulator of Corynebacterium glutamicum (natural protein)”, the stoichiometry N (as a rule, a count of units in the complex or per binding partner) in series [1] was 8.

B1: NC3 (dsDNA)
DNA 1: CACAGGAGGAACCGTGGAAGATCTCTCATAC
DNA 2: GTATGAGAGATCTTCCACGGTTCCTCCTGTG
Take B1: the binding result in series [2] is given as “no binding”.

B2: FS3 (dsDNA)
DNA 1: CTGTCAATTATCCATATGGGCGAAATATTGT
DNA 2: ACAATATTTCGCCCATATGGATAATTGACAG
On to B2, for which the binding result in series [3] is reported as “binds”.
